{
  "source": "patent US20110118131A1",
  "about": "(published 2011)",
  "binders": {"B1": {"name": "ING-1 light chain E98N (Fab, V domains shown)", "VH": "QIQLVQSGPELKKPGETVKISCKASGYTFTKYGMNWVKQAPGKGLKWMGWINTYTEEPTYGDDFKGRFAFSLETSASTANLQINNLKSEDTATYFCARFGSAVDYWGQGTSVTVSS", "VL": "DIVMTQAAFSNPVTLGTSGSISCRSSKSLLHSNGITYLYWYLQKPGQSPQLLIYQMSNLASGVPDRFSSSGSGTDFTLRISRVEAEDVGVYYCAQNLNLPRTFGGGTKLEMKR", "notes": "Fab, periplasmic extract"}, "B2": {"name": "ING-1 light chain K27S (Fab, V domains shown)", "VH": "B1 VH", "VL": "B1 VL with K27S, N98E", "notes": "Fab, periplasmic extract"}, "B3": {"name": "ING-1 light chain H31R (Fab, V domains shown)", "VH": "B1 VH", "VL": "B1 VL with H31R, N98E", "notes": "Fab, periplasmic extract"}, "B4": {"name": "ING-1 light chain K27N (Fab, V domains shown)", "VH": "B1 VH", "VL": "B1 VL with K27N, N98E", "notes": "Fab, periplasmic extract"}, "B5": {"name": "ING-1 light chain H31K (Fab, V domains shown)", "VH": "B1 VH", "VL": "B1 VL with H31K, N98E", "notes": "Fab, periplasmic extract"}, "B6": {"name": "ING-1 light chain L29D (Fab, V domains shown)", "VH": "B1 VH", "VL": "B1 VL with L29D, N98E", "notes": "Fab, periplasmic extract"}, "B7": {"name": "ING-1 light chain E98S (Fab, V domains shown)", "VH": "B1 VH", "VL": "B1 VL with N98S", "notes": "Fab, periplasmic extract"}, "B8": {"name": "ING-1 light chain I35N (Fab, V domains shown)", "VH": "B1 VH", "VL": "B1 VL with I35N, N98E", "notes": "Fab, periplasmic extract"}, "B9": {"name": "ING-1 light chain K27W (Fab, V domains shown)", "VH": "B1 VH", "VL": "B1 VL with K27W, N98E", "notes": "Fab, periplasmic extract"}, "B10": {"name": "ING-1 light chain H31N (Fab, V domains shown)", "VH": "B1 VH", "VL": "B1 VL with H31N, N98E", "notes": "Fab, periplasmic extract"}, "B11": {"name": "ING-1 light chain K27E (Fab, V domains shown)", "VH": "B1 VH", "VL": "B1 VL with K27E, N98E", "notes": "Fab, periplasmic extract"}, "B12": {"name": "ING-1 heavy chain W50S (Fab, V domains shown)", "VH": "B1 VH with W50S", "VL": "B1 VL with N98E"}, "B13": {"name": "ING-1 heavy chain T59Q (Fab, V domains shown)", "VH": "B1 VH with T59Q", "VL": "B1 VL with N98E"}, "B14": {"name": "ING-1 heavy chain Y105E (Fab, V domains shown)", "VH": "B1 VH with Y105E", "VL": "B1 VL with N98E"}, "B15": {"name": "ING-1 heavy chain Y32H (Fab, V domains shown)", "VH": "B1 VH with Y32H", "VL": "B1 VL with N98E"}, "B16": {"name": "ING-1 heavy chain W50H (Fab, V domains shown)", "VH": "B1 VH with W50H", "VL": "B1 VL with N98E"}, "B17": {"name": "ING-1 heavy chain W50Y (Fab, V domains shown)", "VH": "B1 VH with W50Y", "VL": "B1 VL with N98E"}, "B18": {"name": "ING-1 heavy chain Y105K (Fab, V domains shown)", "VH": "B1 VH with Y105K", "VL": "B1 VL with N98E"}, "B19": {"name": "ING-1 heavy chain Y32Q (Fab, V domains shown)", "VH": "B1 VH with Y32Q", "VL": "B1 VL with N98E"}, "B20": {"name": "ING-1 heavy chain T55Q (Fab, V domains shown)", "VH": "B1 VH with T55Q", "VL": "B1 VL with N98E"}, "B21": {"name": "ING-1 heavy chain W50N (Fab, V domains shown)", "VH": "B1 VH with W50N", "VL": "B1 VL with N98E"}, "B22": {"name": "ING-1 heavy chain Y105D (Fab, V domains shown)", "VH": "B1 VH with Y105D", "VL": "B1 VL with N98E"}, "B23": {"name": "ING-1 heavy chain T55H (Fab, V domains shown)", "VH": "B1 VH with T55H", "VL": "B1 VL with N98E"}, "B24": {"name": "ING-1 heavy chain Y32E (Fab, V domains shown)", "VH": "B1 VH with Y32E", "VL": "B1 VL with N98E"}, "B25": {"name": "ING-1 heavy chain Y54D (Fab, V domains shown)", "VH": "B1 VH with Y54D", "VL": "B1 VL with N98E"}, "B26": {"name": "ING-1 heavy chain T55W (Fab, V domains shown)", "VH": "B1 VH with T55W", "VL": "B1 VL with N98E"}, "B27": {"name": "ING-1 heavy chain T55Y (Fab, V domains shown)", "VH": "B1 VH with T55Y", "VL": "B1 VL with N98E"}, "B28": {"name": "ING-1 heavy chain Y54H (Fab, V domains shown)", "VH": "B1 VH with Y54H", "VL": "B1 VL with N98E"}, "B29": {"name": "ING-1 heavy chain T59H (Fab, V domains shown)", "VH": "B1 VH with T59H", "VL": "B1 VL with N98E"}, "B30": {"name": "ING-1 heavy chain Y54E (Fab, V domains shown)", "VH": "B1 VH with Y54E", "VL": "B1 VL with N98E"}, "B31": {"name": "ING-1 heavy chain T55E (Fab, V domains shown)", "VH": "B1 VH with T55E", "VL": "B1 VL with N98E"}, "B32": {"name": "ING-1 heavy chain W50E (Fab, V domains shown)", "VH": "B1 VH with W50E", "VL": "B1 VL with N98E"}, "B33": {"name": "ING-1 heavy chain T55F (Fab, V domains shown)", "VH": "B1 VH with T55F", "VL": "B1 VL with N98E"}, "B34": {"name": "ING-1 heavy chain W50K (Fab, V domains shown)", "VH": "B1 VH with W50K", "VL": "B1 VL with N98E"}, "B35": {"name": "ING-1 heavy chain W50R (Fab, V domains shown)", "VH": "B1 VH with W50R", "VL": "B1 VL with N98E"}, "B36": {"name": "ING-1 heavy chain Y32S (Fab, V domains shown)", "VH": "B1 VH with Y32S", "VL": "B1 VL with N98E"}, "B37": {"name": "ING-1 heavy chain W50Q (Fab, V domains shown)", "VH": "B1 VH with W50Q", "VL": "B1 VL with N98E"}, "B38": {"name": "ING-1 heavy chain Y32K (Fab, V domains shown)", "VH": "B1 VH with Y32K", "VL": "B1 VL with N98E"}, "B39": {"name": "ING-1 heavy chain W50F (Fab, V domains shown)", "VH": "B1 VH with W50F", "VL": "B1 VL with N98E"}, "B40": {"name": "ING-1 heavy chain T55D (Fab, V domains shown)", "VH": "B1 VH with T55D", "VL": "B1 VL with N98E"}, "B41": {"name": "ING-1 heavy chain Y105S (Fab, V domains shown)", "VH": "B1 VH with Y105S", "VL": "B1 VL with N98E"}},
  "note": "Residue numbers refer to the chain shown, from its start. Names may count otherwise.",
  "data": [
    {"biological_target": "T1, Ep-CAM (UniProt P16422 24-265, limits assumed)", "T1 construct": "Amine coupled to a CM5 chip in the Biacore assays", "T1 sequence (looked up)": "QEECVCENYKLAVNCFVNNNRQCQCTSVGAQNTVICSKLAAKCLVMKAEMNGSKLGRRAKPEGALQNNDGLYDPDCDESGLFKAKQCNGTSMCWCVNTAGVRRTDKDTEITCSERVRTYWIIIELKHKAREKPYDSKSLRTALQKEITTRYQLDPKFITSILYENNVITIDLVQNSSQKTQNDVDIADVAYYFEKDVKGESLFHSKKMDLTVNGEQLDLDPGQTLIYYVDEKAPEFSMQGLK", "test": "Biacore, Fab periplasmic extract", "units": {"fold difference in affinity vs parental ING-1": "fold"}, "values": [
      {"binder": "B1", "binding result": "no binding"},
      {"binder": "B2", "binding result": "no binding"},
      {"binder": "B3", "fold difference in affinity vs parental ING-1": 0.06},
      {"binder": "B4", "binding result": "no binding"},
      {"binder": "B5", "fold difference in affinity vs parental ING-1": 0.05},
      {"binder": "B6", "binding result": "no binding"},
      {"binder": "B7", "binding result": "no binding"},
      {"binder": "B8", "fold difference in affinity vs parental ING-1": 0.5},
      {"binder": "B9", "binding result": "no binding"},
      {"binder": "B10", "fold difference in affinity vs parental ING-1": 0.5},
      {"binder": "B11", "binding result": "no binding"}
    ]},
    {"biological_target": "T2, Ep-CAM (UniProt P16422 24-265, limits assumed)", "T2 construct": "Antigen of the Biacore analysis of ING-1 variants", "T2 sequence (looked up)": "T1 sequence (looked up)", "test": "Biacore, Fab periplasmic extract", "units": {"fold difference in affinity vs original": "fold"}, "values": [
      {"binder": "B12", "fold difference in affinity vs original": 0.02},
      {"binder": "B13", "binding result": "no binding"},
      {"binder": "B14", "binding result": "no binding"},
      {"binder": "B15", "fold difference in affinity vs original": 0.6},
      {"binder": "B16", "fold difference in affinity vs original": 0.02},
      {"binder": "B17", "fold difference in affinity vs original": 0.04},
      {"binder": "B18", "binding result": "no binding"},
      {"binder": "B19", "fold difference in affinity vs original": 0.1},
      {"binder": "B20", "fold difference in affinity vs original": 0.03},
      {"binder": "B21", "fold difference in affinity vs original": 0.03},
      {"binder": "B22", "binding result": "no binding"},
      {"binder": "B23", "fold difference in affinity vs original": 0.05},
      {"binder": "B24", "fold difference in affinity vs original": 0.08},
      {"binder": "B25", "fold difference in affinity vs original": 0.05},
      {"binder": "B26", "fold difference in affinity vs original": 0.1},
      {"binder": "B27", "fold difference in affinity vs original": 0.03},
      {"binder": "B28", "fold difference in affinity vs original": 1},
      {"binder": "B29", "fold difference in affinity vs original": 0.4},
      {"binder": "B30", "fold difference in affinity vs original": 0.07},
      {"binder": "B31", "binding result": "no binding"},
      {"binder": "B32", "binding result": "no binding"},
      {"binder": "B33", "fold difference in affinity vs original": 0.03},
      {"binder": "B34", "fold difference in affinity vs original": 0.04},
      {"binder": "B35", "fold difference in affinity vs original": 0.1},
      {"binder": "B36", "fold difference in affinity vs original": 0.01},
      {"binder": "B37", "fold difference in affinity vs original": 0.01},
      {"binder": "B38", "fold difference in affinity vs original": 0.08},
      {"binder": "B39", "fold difference in affinity vs original": 0.09},
      {"binder": "B40", "fold difference in affinity vs original": 0.03},
      {"binder": "B41", "fold difference in affinity vs original": 0.09}
    ]}
  ]
}
